Data published in US20230227838A1, “ENHANCED CELL SURVIVAL AGAINST BIOTIC AND ABIOTIC STRESSES THROUGH SALICYLICK ACID-INDUCED NPR1 CONDENSATES” (priority 2020, published 2023).

What was measured:
[1] = test system: cytoplasmic condensates (SINCs); test: Confocal imaging of localization and condensate (body) formation of GFP-fused NPR proteins and variants; format: cell-based, Nicotiana benthamiana
Experimental: (§1) Plant transformation: For plant transformations, the Agrobacterium tumefaciens strain GV3101 was transformed with plant binary vectors carrying the indicated transgenes. For stable expression in Arabidopsis, a floral dipping method was used. For transient expression in N benthamiana, the Agrobacterium carrying the indicated construct was cultured overnight at 28° C. in Luria-Bertani (LB) broth medium supplemented with appropriate antibiotics: spectinomycin (100 μg/ml), kanamycin (50 μg/ml), gentamycin (50 μg/ml), and rifampicin (25 μg/ml). The obtained culture was re-inoculated at 1:10 into fresh growth media with antibiotics and grown for another 4 hr. Cells were then spun down at 1,600 g for 10 min, and inoculum was prepared by resuspending cells to OD600 nm=1 in double distilled water (DDW) containing 200 μM acetosyringone (Sigma). Unless otherwise stated, for co-IP, co-localization, and BiFC assays in N. benthamiana, the proteins were co-expressed at 1:1 mixture of the relevant Agrobacteria inoculums. In all BiFC assays, the pair of YN/YC fusions was co-expressed together with free mCherry to mark the cytoplasm and nucleus, mCherry-NLS to mark the nucleus only, or mCherry-fused test proteins for co-localization analysis. The inoculum was pressure infiltrated into N. benthamiana leaves at the abaxial side using 1 ml syringe without the needle. Due to low overall levels of NPR1-GFP in transgenic plants, a transient expression assay in Arabidopsis seedlings was used to monitor NPR1-GFP subcellular localization after SA treatment (FIG. 2B). To limit the imaging time in this transient assay (2 hours), a higher baseline SA concentration had to be used. Seeds of WT (Col-0) Arabidopsis were germinated on solid half-strength Murashige and Skoog (1/2 MS) medium and grown for 4 days. Agrobacterium carrying the indicated constructs was grown overnight in LB medium supplemented with appropriate antibiotics. The obtained culture was re-inoculated at 1:10 into virulence induction medium [50.78 mM MES, 0.5% Glucose, 1.734 mM NaH2PO4, 5% of 20X-AB mix (373.9 mM NH4C1, 24.34 mM MgSO4, 40.23 mM KCl, 1.36 mM CaCl2 and 0.18 mM FeSO4·7H2O), 200 μM acetosyringone] supplemented with 25 μg/ml rifampicin and grown for another 24 hr at 28° C. to OD600=0.8 (inoculum). Seedlings were vacuum-infiltrated with the inoculum, and at 48 hpi (hours post inoculation), treatments were performed by submerging the transformed seedlings in water or SA solution at indicated concentrations for 2 hr. Entire cotyledons were sampled for microscopy.
Confocal laser scanning microscopy. Unless otherwise indicated, all imaging data and micrographs for single protein imaging, co-localizations, BiFC and time-lapse were obtained from the transient expression in N. benthamiana using the relevant Agrobacteria strains. All imaging was done with confocal laser scanning fluorescence microscopy using Zeiss 880 airyscan inverted confocal microscope with a 40×/1.2 water correction objective. GFP (eGFP) was excited with a 488 nm argon laser and emission was collected with a 505-530 nm band pass filter. YFP was excited with an argon laser using a 514 nm beam splitter, and emission was detected with a 520-555 nm band pass filter. mCherry was excited with a 561 nm diode laser, and emission was detected with a 575-615 nm band pass filter. When eGFP/YFP were imaged together with mCherry, a spectral GASP detector was used to collect emission from eGFP/YFP. Propidium iodide (PI) was excited with 488 nm argon laser and emission was detected with a 590-620 nm band pass filter. Time-lapse imaging was carried out on live leaf tissue samples from N. benthamiana plants transiently expressing the protein of interest. Image acquisition was done in 5 min intervals for the duration of 2 hr by scanning 30 consecutive focal planes along the Z-axis covering the entire thickness of an epidermal cell. Z-projection was done to each time frame stack before composing a final time-lapse file. […]

[2] = test system: Psm ES4326/AvrRpt2-mediated cell death; test: Cell death (conductivity/electrolyte leakage, trypan blue) after Psm ES4326/AvrRpt2 inoculation; format: in vivo, Arabidopsis thaliana; details: transgenic plants expressing the mutant in npr1-2 background; 1 mM SA 24 hr before inoculation
Experimental: Chemical treatment, pathogen infection and cell death assays. […] At 2 days, the bacterial colonies were scored.
Trypan blue staining. Leaves of three-week-old Arabidopsis infected with Psm ES4326/AvrRpt2 were sampled at 1 dpi, boiled in 95% ethanol until completely bleached, followed by boiling for 3 min in a 1:1 mixture of 95% ethanol and staining solution (10 ml lactic acid, 10 ml glycerol, 10 g phenol and 10 mg trypan blue, dissolved in 10 ml DDW). The leaves were then de-stained in 2.5 g/ml chloral hydrate solution and transferred to 70% glycerol for subsequent imaging.

CUL3 = test: Co-IP of Myc-CUL3 with HA-fused NPR1 or variants; format: binding, Arabidopsis thaliana; details: 1 mM SA for 5 hr
Experimental: as §1
Protein analysis and IP. Recombinant protein analysis was performed using transient expression in N. benthamiana, or stable over-expression in transgenic Arabidopsis, or expression in E. coli. Total protein extraction from plants was performed by homogenizing leaf tissue in the plant extraction buffer [50 mM Tris-HCl (pH 7.5), 150 mM NaCl, 5 mM EDTA, 0.2% Triton X-100, 0.2% Nonidet P-40] supplemented with 1 mM PMSF, 100 μM MG132, and EDTA-free protease inhibitor cocktail (Roche). For ubiquitinated protein analysis in plants, 100 μM of DUB (deubiquitinase) inhibitor (LifeSensors) and 10 mM NEM were added. Next, the lysates were cleared by centrifugation at 14,000 rpm for 15 min followed by filtering through a 0.2 μm filter. […] Pull-downs or IP experiments were done on total protein extracts by incubating protein samples in the lysis buffer overnight with indicated affinity tag or antibody conjugated to agarose or magnetic beads: GFP-trap agarose beads (Chromotek) for GFP fusions; RFP-trap agarose beads (Chromotek) for mCherry fusions; anti-HA magnetic beads (ThermoFisher) for HA tag fusions; anti-DYKDDDDK coupled magnetic agarose (ThermoFisher) for FLAG tag fusions; and glutathione magnetic agarose (ThermoFisher) for GST fusions. Unless otherwise indicated, after pull-down/IP, beads were washed 3 times and proteins were eluted by boiling in the 2×SDS sample buffer. […]

PR1 promoter = PR1 promoter activity, dual luciferase assay; format: cell-based, Nicotiana benthamiana; details: 2 mM SA for 24 hr
From the text: PR1 promoter activity and dual luciferase assay. For promoter transactivation assays, the PR1 promoter reporter (pPR1:DUAL-LUC) was transiently co-expressed in N. benthamiana together with free HA, or HA-fused WT NPR1 or npr1 mutants (effectors) followed by treatment with SA at 1 dpi. At 2 dpi (24 hr after SA treatment), leaf discs were collected, ground in liquid nitrogen, and lysed with the PLB buffer of the Dual-Luciferase Reporter Assay System (Promega, E1910). Lysate was spun down at 12,000 g for 1 min, and 10 μl was taken for measuring FLUC and RLUC activities according to manufacturer's instructions using a Victor3 plate reader (PerkinElmer). At 25° C., substrates for FLUC and RLUC were added using the automatic injector and after 3 s shaking and 3 s delay, the signals were captured for 3 s and recorded as counts per second. To obtain the PR1 promoter activity, the ratio of F-LUC and R-LUC activities was calculated for each effector and plotted relative to that of free HA.

B1: rdr3: NPR1 with cysteine cluster of RDR3 mutated (C511/521/529A) (protein)
chain: MDTTIDGFADSYEISSTSFVATDNTDSSIVYLAAEQVLTGPDVSALQLLSNSFESVFDSPDDFYSDAKLVLSDGREVSFHRCVLSARSSFFKSALAAAKKEKDSNNTAAVKLELKEIAKDYEVGFDSVVTVLAYVYSSRVRPPPKGVSECADENCCHVACRPAVDFMLEVLYLAFIFKIPELITLYQRHLLDVVDKVVIEDTLVILKLANICGKACMKLLDRCKEIIVKSNVDMVSLEKSLPEELVKEIIDRRKELGLEVPKVKKHVSNVHKALDSDDIELVKLLLKEDHTNLDDACALHFAVAYCNVKTATDLLKLDLADVNHRNPRGYTVLHVAAMRKEPQLILSLLEKGASASEATLEGRTALMIAKQATMAVECNNIPEQCKHSLKGRLCVEILEQEDKREQIPRDVPPSFAVAADELKMTLLDLENRVALAQRLFPTEAQAAMEIAEMKGTCEFIVTSLEPDRLTGTKRTSPGVKIAPFRILEEHQSRLKALSKTVELGKRFFPRASAVLDQIMNAEDLTQLAAGEDDTAEKRLQKKQRYMEIQETLKKAFSEDNLELGNSSLTDSTSSTSKSTGGKRSNRKLSHRRR
modifications: A. thaliana npr1 rdr3 protein
SA-induced cytoplasmic body/condensate (SINC) formation ([1]; 5 mM SA for 2 hr): completely abolished the SA-induced condensation in both cytoplasm and nucleus | nuclear accumulation (nuclear-cytoplasmic partitioning) ([1]; absence of SA, compared to WT): increased nuclear accumulation | condensate formation in the absence of SA (constitutive) ([1]; no SA treatment / mock): no effect on protein state in untreated cells | protection against cell death induced by Psm ES4326/AvrRpt2 (SA-mediated survival phenotype) [2]: partially compromised the protection against cell death | CUL3 pull-down signal in co-IP (CUL3): little interaction | transcriptional co-activation function (PR1 promoter transactivation) (PR1 promoter): reduced transcriptional co-activation function
